B1: Contactin-associated protein-like 2 (Homo sapiens), Q9UHC6-1 (parent)
chain: MQAAPRAGCGAALLLWIVSSCLCRAWTAPSTSQKCDEPLVSGLPHVAFSSSSSISGSYSPGYAKINKRGGAGGWSPSDSDHYQWLQVDFGNRKQISAIATQGRYSSSDWVTQYRMLYSDTGRNWKPYHQDGNIWAFPGNINSDGVVRHELQHPIIARYVRIVPLDWNGEGRIGLRIEVYGCSYWADVINFDGHVVLPYRFRNKKMKTLKDVIALNFKTSESEGVILHGEGQQGDYITLELKKAKLVLSLNLGSNQLGPIYGHTSVMTGSLLDDHHWHSVVIERQGRSINLTLDRSMQHFRTNGEFDYLDLDYEITFGGIPFSGKPSSSSRKNFKGCMESINYNGVNITDLARRKKLEPSNVGNLSFSCVEPYTVPVFFNATSYLEVPGRLNQDLFSVSFQFRTWNPNGLLVFSHFADNLGNVEIDLTESKVGVHINITQTKMSQIDISSGSGLNDGQWHEVRFLAKENFAILTIDGDEASAVRTNSPLQVKTGEKYFFGGFLNQMNNSSHSVLQPSFQGCMQLIQVDDQLVNLYEVAQRKPGSFANVSIDMCAIIDRCVPNHCEHGGKCSQTWDSFKCTCDETGYSGATCHNSIYEPSCEAYKHLGQTSNYYWIDPDGSGPLGPLKVYCNMTEDKVWTIVSHDLQMQTPVVGYNPEKYSVTQLVYSASMDQISAITDSAEYCEQYVSYFCKMSRLLNTPDGSPYTWWVGKANEKHYYWGGSGPGIQKCACGIERNCTDPKYYCNCDADYKQWRKDAGFLSYKDHLPVSQVVVGDTDRQGSEAKLSVGPLRCQGDRNYWNAASFPNPSSYLHFSTFQGETSADISFYFKTLTPWGVFLENMGKEDFIKLELKSATEVSFSFDVGNGPVEIVVRSPTPLNDDQWHRVTAERNVKQASLQVDRLPQQIRKAPTEGHTRLELYSQLFVGGAGGQQGFLGCIRSLRMNGVTLDLEERAKVTSGFISGCSGHCTSYGTNCENGGKCLERYHGYSCDCSNTAYDGTFCNKDVGAFFEEGMWLRYNFQAPATNARDSSSRVDNAPDQQNSHPDLAQEEIRFSFSTTKAPCILLYISSFTTDFLAVLVKPTGSLQIRYNLGGTREPYNIDVDHRNMANGQPHSVNITRHEKTIFLKLDHYPSVSYHLPSSSDTLFNSPKSLFLGKVIETGKIDQEIHKYNTPGFTGCLSRVQFNQIAPLKAALRQTNASAHVHIQGELVESNCGASPLTLSPMSSATDPWHLDHLDSASADFPYNPGQGQAIRNGVNRNSAIIGGVIAVVIFTILCTLVFLIRYMFRHKGTYHTNEAKGAESAESADAAIMNNDPNFTETIDESKKEWLI
partner: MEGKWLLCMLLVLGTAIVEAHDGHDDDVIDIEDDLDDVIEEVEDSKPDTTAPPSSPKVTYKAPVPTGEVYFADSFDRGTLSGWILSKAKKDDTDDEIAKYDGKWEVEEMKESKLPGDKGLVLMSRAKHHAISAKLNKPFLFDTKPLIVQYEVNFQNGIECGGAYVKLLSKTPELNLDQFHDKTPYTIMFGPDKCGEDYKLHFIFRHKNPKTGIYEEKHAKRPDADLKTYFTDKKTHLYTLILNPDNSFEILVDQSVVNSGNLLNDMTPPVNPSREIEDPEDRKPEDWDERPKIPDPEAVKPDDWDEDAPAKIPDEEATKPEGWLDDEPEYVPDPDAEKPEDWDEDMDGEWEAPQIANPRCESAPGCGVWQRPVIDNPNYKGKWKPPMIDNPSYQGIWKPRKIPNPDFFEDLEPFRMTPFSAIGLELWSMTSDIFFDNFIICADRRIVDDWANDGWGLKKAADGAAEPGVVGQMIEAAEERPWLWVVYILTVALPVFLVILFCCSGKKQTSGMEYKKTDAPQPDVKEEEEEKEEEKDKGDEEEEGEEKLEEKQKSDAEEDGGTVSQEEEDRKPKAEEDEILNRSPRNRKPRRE

Variants of: B1
Details: with calx_human CANX

effect of a mutation on the interaction | Variant
increasing interaction strength | D1129H

— IntAct's records for PubMed 22872700
